The target in the experiment is mouse ZO-1 expressed in Sf21 insect cells (mouse, UniProt P39447 1-1745). Briefly: pull-down.
Sequence of mouse ZO-1 expressed in Sf21 insect cells (P39447 whole entry): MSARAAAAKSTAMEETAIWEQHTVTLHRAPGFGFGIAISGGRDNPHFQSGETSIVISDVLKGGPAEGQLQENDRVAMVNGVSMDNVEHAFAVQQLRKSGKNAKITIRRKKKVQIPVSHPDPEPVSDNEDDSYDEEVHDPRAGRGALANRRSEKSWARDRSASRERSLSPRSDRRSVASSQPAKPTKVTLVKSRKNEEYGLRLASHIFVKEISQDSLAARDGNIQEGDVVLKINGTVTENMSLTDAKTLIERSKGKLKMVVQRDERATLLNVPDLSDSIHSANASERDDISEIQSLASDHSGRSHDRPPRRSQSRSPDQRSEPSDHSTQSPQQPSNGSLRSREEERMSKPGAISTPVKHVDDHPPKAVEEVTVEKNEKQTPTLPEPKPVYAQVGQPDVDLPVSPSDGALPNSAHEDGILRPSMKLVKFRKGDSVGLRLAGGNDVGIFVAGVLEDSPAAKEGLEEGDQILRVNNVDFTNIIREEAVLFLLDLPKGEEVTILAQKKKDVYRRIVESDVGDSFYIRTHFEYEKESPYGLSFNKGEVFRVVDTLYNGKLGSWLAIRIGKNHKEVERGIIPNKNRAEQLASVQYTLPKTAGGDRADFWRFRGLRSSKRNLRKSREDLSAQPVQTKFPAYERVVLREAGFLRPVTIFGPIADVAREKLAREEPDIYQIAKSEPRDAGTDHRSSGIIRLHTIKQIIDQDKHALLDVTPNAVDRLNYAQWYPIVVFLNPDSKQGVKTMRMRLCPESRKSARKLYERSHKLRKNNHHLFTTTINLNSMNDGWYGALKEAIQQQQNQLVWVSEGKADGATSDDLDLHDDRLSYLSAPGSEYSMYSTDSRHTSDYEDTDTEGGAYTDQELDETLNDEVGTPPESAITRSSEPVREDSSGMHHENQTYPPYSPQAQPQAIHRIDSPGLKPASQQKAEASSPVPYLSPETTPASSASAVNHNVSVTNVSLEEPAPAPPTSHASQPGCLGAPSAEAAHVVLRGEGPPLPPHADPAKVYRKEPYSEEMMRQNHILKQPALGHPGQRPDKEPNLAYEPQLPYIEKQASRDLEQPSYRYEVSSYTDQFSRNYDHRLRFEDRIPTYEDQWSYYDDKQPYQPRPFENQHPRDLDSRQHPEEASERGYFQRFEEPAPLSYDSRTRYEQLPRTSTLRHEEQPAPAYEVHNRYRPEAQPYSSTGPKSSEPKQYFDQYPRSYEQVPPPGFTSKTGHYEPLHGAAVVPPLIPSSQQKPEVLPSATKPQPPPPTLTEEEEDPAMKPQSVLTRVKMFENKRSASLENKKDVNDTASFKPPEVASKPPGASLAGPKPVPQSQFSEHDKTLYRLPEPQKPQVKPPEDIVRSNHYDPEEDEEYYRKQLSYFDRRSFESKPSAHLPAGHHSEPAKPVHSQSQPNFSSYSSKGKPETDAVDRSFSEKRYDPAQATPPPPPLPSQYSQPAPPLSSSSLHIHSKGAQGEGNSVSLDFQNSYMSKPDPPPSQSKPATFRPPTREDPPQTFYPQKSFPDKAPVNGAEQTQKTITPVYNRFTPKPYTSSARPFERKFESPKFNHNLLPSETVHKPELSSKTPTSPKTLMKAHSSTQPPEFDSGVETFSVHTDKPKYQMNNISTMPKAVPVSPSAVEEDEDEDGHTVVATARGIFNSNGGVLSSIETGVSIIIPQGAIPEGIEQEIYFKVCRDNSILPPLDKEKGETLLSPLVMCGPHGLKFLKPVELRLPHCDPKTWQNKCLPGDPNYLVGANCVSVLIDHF

B1: GST-XC(1-378), GST fused to Xenopus laevis cingulin residues 1-378 (domain or fragment, UniProt Q9PTD7 1-378, looked up)
chain: MERDIYGDMADQHIPVGQGVQIRFIGDLKENGKPRGKRSKQDSYGVAVRVQGIDGQPFVVLNSGDKAKSSFGVQIKSQEPYLNASNTSPPNYQNYSSKPRGPSRSISSESELPENPYGSRGYRPSSSHYSSASDEEQKPRGNIRGSDGLSSLPRPLQASRREELRRSQSHSSLLEPDVEESYDYDHHYSERSSTLDTTYSQSSRDSAWSRSSQKKIDNGDYPSLGYRSATSQQSTSVSNKTKKNGLSTSSPSNQSNEDIDTKPLSSVDSLINKFDIKGQVRGRTARRSQALKDERKRSQSLDGRKNYHDTADSREIIVEKQNEVQTMREPVNASNRSFNRQTLERGDISKTRLTKEWLDQDREEPVILKQQRTVQSEF
Usually Kd stands for the constant that tells how readily two partners part at equilibrium. B1 had a Kd of approximately 5 nM.

These data come from article PMC2174252 (The Journal of Cell Biology, 1999).
